Target: T1, Vfr (Pseudomonas aeruginosa UCBPP-PA14) (UniProt P55222)
T1 sequence: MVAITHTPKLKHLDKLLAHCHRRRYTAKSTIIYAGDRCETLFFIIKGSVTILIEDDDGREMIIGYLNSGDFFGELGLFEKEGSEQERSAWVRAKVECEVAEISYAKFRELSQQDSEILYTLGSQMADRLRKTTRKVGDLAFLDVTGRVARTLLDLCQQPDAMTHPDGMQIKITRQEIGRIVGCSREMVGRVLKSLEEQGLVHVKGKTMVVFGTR
Experiment: EMSA

TCTGACCCATCCGCGCGACTGGCCCCCGGGCCGGTCGCTCCCCCGGGACGACCGTCGGTCCCGGATCGGCGCGCTTTCCTGAACTATCGATCAGCTGTCACTGGCCGCCGCGCAAACGCTTGGTTAAGATTCCGCCAGCAACCTGGCCACCCGCCATTCCCCAGGCGGAAAGCTCACGAGGCCGAGCCGGGACGAAAATACACAGGGATCCTCTCCAGCGCATG (double strand) [PcyaB]
binding: no binding

From paper PMC9563714
